The series concerns the molecule itself. Description: crystal structure.

Data on 1 protein can be found in article PMC5737657 (Nucleic Acids Research, 2017).

B1: VapC26 toxin with N-terminal (His)6 tag (native, co-expressed with VapB26) (natural protein)
chain: MIIDTSALLAYFDAAEPDHAAVSECIDSSADALVVSPYVVAELDYLVATRVGVDAELAVLRELAGGAWELANCGAAEIEQAARIVTKYQDQRIGIADAANVVLADRYRTRTILTLDRRHFSALRPIGGGRFTVIP
For the protein B1, the binding result is “binds”.
